Values belong to the molecule of their own block, whether it stands above or below them.
Assays:
[1] = biological target: human N-cadherin naturally expressed on DX3 melanoma cells (human) (UniProt P19022); assay: adhesion of DX3 cells to coated monomeric N-cadherin-Fc, in oxidising buffer and in 10 mM DTT
[2] = biological target: T1, full length chicken N-cadherin with the mutation D1C expressed on K562 cells (chicken, UniProt P10288 165-912, D1C); assay: Protein A Dynabeads coated with dimeric D27C N-cadherin-Fc mixed with K562 transfectants
T1 construct: whole, on cells; also called D1C cells; K562 D1C
T1 sequence (looked up): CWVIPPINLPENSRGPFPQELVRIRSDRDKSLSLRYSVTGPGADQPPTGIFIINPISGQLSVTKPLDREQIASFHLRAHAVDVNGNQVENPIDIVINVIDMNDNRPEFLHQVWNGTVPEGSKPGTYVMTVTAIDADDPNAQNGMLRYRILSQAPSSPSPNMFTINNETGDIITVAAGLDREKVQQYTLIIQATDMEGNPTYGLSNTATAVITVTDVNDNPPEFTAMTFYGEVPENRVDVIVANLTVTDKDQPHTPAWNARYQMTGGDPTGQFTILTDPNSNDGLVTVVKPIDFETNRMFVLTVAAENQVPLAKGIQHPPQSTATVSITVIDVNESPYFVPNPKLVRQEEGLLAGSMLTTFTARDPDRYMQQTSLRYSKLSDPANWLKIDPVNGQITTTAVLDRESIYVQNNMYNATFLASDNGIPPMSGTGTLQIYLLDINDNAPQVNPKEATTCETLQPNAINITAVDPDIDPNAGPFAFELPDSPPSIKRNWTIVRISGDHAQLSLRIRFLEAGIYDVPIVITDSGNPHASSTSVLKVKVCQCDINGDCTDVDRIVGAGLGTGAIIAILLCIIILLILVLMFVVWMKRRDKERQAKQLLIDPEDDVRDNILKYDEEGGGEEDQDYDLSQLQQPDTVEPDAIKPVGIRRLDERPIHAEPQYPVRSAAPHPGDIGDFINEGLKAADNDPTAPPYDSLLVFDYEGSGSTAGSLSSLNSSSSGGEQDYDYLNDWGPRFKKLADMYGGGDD
Method: (§1) In an alternative protocol, Dynabeads (Dynal) coupled to Protein A were coated with dimeric N-cadherin-Fc (1 μg/ml), bearing the mutation D27C, for 1 hour at room temperature in the presence of 0.1% Tween 20 and 4 mM EGTA (to prevent aggregation). The beads were then washed with HBSS. K562 transfectants expressing cell surface Ncadherin with the mutations D1C, R25C or D27C, were treated with 10 mM DTT for 15 minutes at 37° C., then washed and resuspended in HBSS without DTT. Cells ([…]) were mixed with 3 μl of beads coated with mutant N-cadherin-Fc in a final volume of 100 μl HBSS. Cells and beads were incubated together at room temperature for 2 hours with slow rotation to allow adhesion. Approximately five beads became attached to each cell and there was some clumping of attached and unattached beads. Iodoacetamide, 2 μl of 1.0M solution, was then added to alkylate free sulphydryl groups. The samples were then spun down at 1500 g and the cells were lysed in HBSS, 0.075% SDS, 1% NP40, 0.2 mM AEBSF, for 4 minutes on ice. Beads were then isolated with a magnet and washed twice with lysis buffer. Disulphide-bonded complexes between cellular cadherin and the Fc-fusion protein were analysed by SDS-PAGE and immunoblotting for cadherin cytoplasmic domain as described above. To ensure equal loading, membranes were stripped and re-assayed with anti-Human Fc.

[3] = biological target: T2, full length chicken N-cadherin with the mutation R25C expressed on K562 cells (chicken, UniProt P10288 165-912, R25C); assay: as above
T2 construct: whole, on cells; also called K562 R25C
T2 sequence (looked up): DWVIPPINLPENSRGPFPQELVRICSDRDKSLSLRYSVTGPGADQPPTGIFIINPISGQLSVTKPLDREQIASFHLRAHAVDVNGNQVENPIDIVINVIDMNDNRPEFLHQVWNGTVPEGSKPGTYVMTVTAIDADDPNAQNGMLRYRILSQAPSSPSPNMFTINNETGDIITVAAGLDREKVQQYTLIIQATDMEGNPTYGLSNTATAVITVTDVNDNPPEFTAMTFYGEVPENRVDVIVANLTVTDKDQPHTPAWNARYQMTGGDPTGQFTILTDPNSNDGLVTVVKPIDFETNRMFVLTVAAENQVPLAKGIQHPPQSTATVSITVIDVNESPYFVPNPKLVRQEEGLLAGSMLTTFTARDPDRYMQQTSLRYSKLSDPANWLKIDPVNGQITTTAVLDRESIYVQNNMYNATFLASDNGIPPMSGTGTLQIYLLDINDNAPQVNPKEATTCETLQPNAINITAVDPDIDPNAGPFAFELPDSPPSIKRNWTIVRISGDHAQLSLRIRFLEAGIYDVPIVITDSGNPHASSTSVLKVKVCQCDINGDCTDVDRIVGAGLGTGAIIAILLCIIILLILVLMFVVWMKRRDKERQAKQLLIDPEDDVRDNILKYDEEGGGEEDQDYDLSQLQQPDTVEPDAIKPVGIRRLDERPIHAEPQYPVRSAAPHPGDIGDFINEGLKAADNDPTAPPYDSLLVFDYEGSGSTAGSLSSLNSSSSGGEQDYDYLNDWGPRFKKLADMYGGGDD
Method: as §1

[4] = biological target: T3, full length chicken N-cadherin with the mutation D27C expressed on K562 cells (chicken, UniProt P10288 165-912, D27C); assay: as above
T3 construct: whole, on cells; also called K562 D27C
T3 sequence (looked up): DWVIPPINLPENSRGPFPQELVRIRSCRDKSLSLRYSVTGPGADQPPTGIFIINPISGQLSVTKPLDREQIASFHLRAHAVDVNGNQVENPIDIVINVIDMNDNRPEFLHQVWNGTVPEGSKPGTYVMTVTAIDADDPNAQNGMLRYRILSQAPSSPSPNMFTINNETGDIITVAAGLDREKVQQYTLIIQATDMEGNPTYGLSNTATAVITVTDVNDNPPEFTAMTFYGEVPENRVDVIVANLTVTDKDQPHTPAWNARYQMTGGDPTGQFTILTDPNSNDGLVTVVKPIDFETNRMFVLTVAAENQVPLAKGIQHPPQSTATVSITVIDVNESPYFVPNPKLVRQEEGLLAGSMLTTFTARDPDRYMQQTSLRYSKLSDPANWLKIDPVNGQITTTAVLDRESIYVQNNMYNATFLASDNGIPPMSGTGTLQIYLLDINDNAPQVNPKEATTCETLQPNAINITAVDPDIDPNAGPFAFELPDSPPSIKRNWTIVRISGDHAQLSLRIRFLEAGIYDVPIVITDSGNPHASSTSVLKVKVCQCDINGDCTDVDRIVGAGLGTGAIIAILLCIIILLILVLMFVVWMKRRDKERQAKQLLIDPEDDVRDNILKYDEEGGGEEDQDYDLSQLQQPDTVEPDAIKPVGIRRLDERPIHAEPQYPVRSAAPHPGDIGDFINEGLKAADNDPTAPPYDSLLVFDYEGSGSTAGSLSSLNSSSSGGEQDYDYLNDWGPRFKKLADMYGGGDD
Method: as §1

[5] = biological target: T4, human N-cadherin naturally expressed on DX3 melanoma cells (human, UniProt P19022 160-906); assay: adhesion of DX3 cells to coated monomeric N-cadherin-Fc, oxidising buffer
T4 construct: also called DX3 Cells; N-cadherin+ve DX3 melanoma cells
T4 sequence: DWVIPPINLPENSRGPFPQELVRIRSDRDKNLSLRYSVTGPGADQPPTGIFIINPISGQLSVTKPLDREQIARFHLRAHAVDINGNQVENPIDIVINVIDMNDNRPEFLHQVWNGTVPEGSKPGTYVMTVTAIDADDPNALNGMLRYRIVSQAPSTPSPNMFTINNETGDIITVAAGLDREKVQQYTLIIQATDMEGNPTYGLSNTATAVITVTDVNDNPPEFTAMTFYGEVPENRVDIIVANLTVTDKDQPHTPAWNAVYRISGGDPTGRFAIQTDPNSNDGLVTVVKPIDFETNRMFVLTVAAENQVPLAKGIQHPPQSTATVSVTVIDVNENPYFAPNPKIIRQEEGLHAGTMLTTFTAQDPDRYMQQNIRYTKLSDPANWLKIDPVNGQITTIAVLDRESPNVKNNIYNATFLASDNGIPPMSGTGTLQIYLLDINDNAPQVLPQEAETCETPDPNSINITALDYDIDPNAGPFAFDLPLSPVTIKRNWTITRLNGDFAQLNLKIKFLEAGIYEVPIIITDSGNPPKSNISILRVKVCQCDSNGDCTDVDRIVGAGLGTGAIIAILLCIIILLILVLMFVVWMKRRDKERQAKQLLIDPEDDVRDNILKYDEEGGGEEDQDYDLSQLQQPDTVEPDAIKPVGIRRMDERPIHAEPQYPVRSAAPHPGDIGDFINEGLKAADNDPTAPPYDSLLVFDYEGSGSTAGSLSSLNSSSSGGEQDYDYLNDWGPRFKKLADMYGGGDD
Method: Monomeric or dimeric N-cadherin-Fc fusion protein in Cos cell supernatants was added as described for the ELISA assay. DX3 Cells, a human melanoma cell line which expresses N-cadherin, were dissociated with Cell Dissociation Solution (Sigma, code C5789), resuspended in HBSS with 2% FCS and assessed for adhesion to wild type or mutant N-cadherin-Fc as previously described (Corps et al., 2001). Microscopic examination established that the cells were present as a single cell suspension as they settled onto the plate. For assays conducted in reducing conditions, 10 mM DTT was present during the adhesion and washing steps. Determinations were conducted in triplicate and results are presented as mean +/−sem.

[6] = biological target: T1, full length chicken N-cadherin with the …; assay: cell adhesion to coated monomeric N-cadherin-Fc, then non-reducing SDS-PAGE and immunoblot
Method: Monomeric N-cadherin-Fc (1 μg/ml) bearing the three alternative cysteine point mutations, D1C, R25C or D27C, was immobilised on 96-well plates with goat antihuman IgG Fe as previously described for E-cadherin-Fc (Corps et al., 2001). Unbound cadherin was removed by washing with HBSS, 0.1% BSA, followed by HBSS alone. The plates were not blocked with additional protein. K562 transfectants expressing N-cadherin bearing complementary or non-complementary point mutations (6×10^4 Cells in 100 μl HBSS containing 10 mM DTT), in single cell suspension, were added to the coated wells which contained 100 μl HBSS. The final concentration of DTT was therefore 5 mM DTT during the adhesion stage. The cells were allowed to settle for 10 min at room temperature before incubation at 37° C. for 30 minutes to complete adhesion. […] Adherent cells from a pool of 4 wells for each experimental condition were then solubilised in sample buffer for SDS-PAGE and analysed on NuPAGE Novex gradient gels, 3-8% or 4-12%, (Invitrogen), under nonreducing or reducing conditions. Cellular cadherin was detected by immunoblotting using rabbit pan anti-cadherin antiserum specific for the cytoplasmic domain. Alternatively, N-cadherin-Fc fusion protein was detected with rabbit anti-human IgG, Fc-specific (Pierce, code 31142). […]

% cells adhering [1]: 65%
Molecule: wild type monomeric chicken N-cadherin-Fc (mutations F405A and Y407A in the CH3 domain of Fc) (from UniProt P10288 165-729) (Fc fusion)

beads attached to each cell [2]: ~5 beads per cell
beads attached to each cell [3]: ~5 beads per cell
beads attached to each cell [4]: ~5 beads per cell
B1: chicken N-cadherin-Fc fusion protein with the mutation D27C, dimeric (conventional fusion protein dimerised via Fc), coated to Protein A magnetic beads (Fc fusion, UniProt P10288 165-728, looked up)
chain: DWVIPPINLPENSRGPFPQELVRIRSCRDKSLSLRYSVTGPGADQPPTGIFIINPISGQLSVTKPLDREQIASFHLRAHAVDVNGNQVENPIDIVINVIDMNDNRPEFLHQVWNGTVPEGSKPGTYVMTVTAIDADDPNAQNGMLRYRILSQAPSSPSPNMFTINNETGDIITVAAGLDREKVQQYTLIIQATDMEGNPTYGLSNTATAVITVTDVNDNPPEFTAMTFYGEVPENRVDVIVANLTVTDKDQPHTPAWNARYQMTGGDPTGQFTILTDPNSNDGLVTVVKPIDFETNRMFVLTVAAENQVPLAKGIQHPPQSTATVSITVIDVNESPYFVPNPKLVRQEEGLLAGSMLTTFTARDPDRYMQQTSLRYSKLSDPANWLKIDPVNGQITTTAVLDRESIYVQNNMYNATFLASDNGIPPMSGTGTLQIYLLDINDNAPQVNPKEATTCETLQPNAINITAVDPDIDPNAGPFAFELPDSPPSIKRNWTIVRISGDHAQLSLRIRFLEAGIYDVPIVITDSGNPHASSTSVLKVKVCQCDINGDCTDVDRIVGAGLGT
notes: extracellular domain; also called dimeric N-cadherin-Fc D27C; D27C beads; not shown: hinge region, CH2 and CH3 domains of human IgG1 heavy chain (vector pIgSig)

binding result [5]: binds
binding result [6]: binds
B2: monomeric chicken N-cadherin-Fc with the mutation R25C (Fc fusion, UniProt P10288 165-728, looked up)
chain: DWVIPPINLPENSRGPFPQELVRICSDRDKSLSLRYSVTGPGADQPPTGIFIINPISGQLSVTKPLDREQIASFHLRAHAVDVNGNQVENPIDIVINVIDMNDNRPEFLHQVWNGTVPEGSKPGTYVMTVTAIDADDPNAQNGMLRYRILSQAPSSPSPNMFTINNETGDIITVAAGLDREKVQQYTLIIQATDMEGNPTYGLSNTATAVITVTDVNDNPPEFTAMTFYGEVPENRVDVIVANLTVTDKDQPHTPAWNARYQMTGGDPTGQFTILTDPNSNDGLVTVVKPIDFETNRMFVLTVAAENQVPLAKGIQHPPQSTATVSITVIDVNESPYFVPNPKLVRQEEGLLAGSMLTTFTARDPDRYMQQTSLRYSKLSDPANWLKIDPVNGQITTTAVLDRESIYVQNNMYNATFLASDNGIPPMSGTGTLQIYLLDINDNAPQVNPKEATTCETLQPNAINITAVDPDIDPNAGPFAFELPDSPPSIKRNWTIVRISGDHAQLSLRIRFLEAGIYDVPIVITDSGNPHASSTSVLKVKVCQCDINGDCTDVDRIVGAGLGT
notes: extracellular domain; not shown: hinge region, CH2 and CH3 domains of human IgG1 heavy chain (vector pIgSig)
